Test results taken from PMC5014761.

Biological target: Δ25 FLAG-MRNIP (human) (UniProt Q6NTE8)
Assay: co-IP; 1 mg whole-cell extract (20 mM Tris-HCl pH 7.5, 150 mM NaCl, 1% Triton X-100, 1 mM DTT, 1 mM EDTA, Benzonase) with M2 anti-FLAG beads 16 hr at 4°C; eluted with FLAG peptide or by heating; immunoblot; HEK293 stable, tetracycline-inducible or transiently transfected cells; in Figure 2D cells exposed to the indicated doses of IR

Chain of UniProt Q6NTE8 (Q6NTE8 whole entry, stated change not applied): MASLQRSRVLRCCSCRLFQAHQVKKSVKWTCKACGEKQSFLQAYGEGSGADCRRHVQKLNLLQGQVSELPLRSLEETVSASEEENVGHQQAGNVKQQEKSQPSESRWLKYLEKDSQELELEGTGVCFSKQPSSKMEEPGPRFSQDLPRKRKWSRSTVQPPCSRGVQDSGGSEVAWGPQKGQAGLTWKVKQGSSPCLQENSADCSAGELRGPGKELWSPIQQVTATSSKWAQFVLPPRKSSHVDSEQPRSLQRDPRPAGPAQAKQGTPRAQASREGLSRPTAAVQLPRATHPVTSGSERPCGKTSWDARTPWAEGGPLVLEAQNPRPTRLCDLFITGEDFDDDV

the MRN complex
percent reduced binding compared to WT MRNIP: 50 to 70%
